Assay results reported in publication PMC5736527, “JUNGBRUNNEN1 Confers Drought Tolerance Downstream of the HD-Zip I Transcription Factor AtHB13”.

Molecular target: T1, AtHB13-GST (Arabidopsis thaliana, UniProt Q8LC03 1-294)
T1 sequence: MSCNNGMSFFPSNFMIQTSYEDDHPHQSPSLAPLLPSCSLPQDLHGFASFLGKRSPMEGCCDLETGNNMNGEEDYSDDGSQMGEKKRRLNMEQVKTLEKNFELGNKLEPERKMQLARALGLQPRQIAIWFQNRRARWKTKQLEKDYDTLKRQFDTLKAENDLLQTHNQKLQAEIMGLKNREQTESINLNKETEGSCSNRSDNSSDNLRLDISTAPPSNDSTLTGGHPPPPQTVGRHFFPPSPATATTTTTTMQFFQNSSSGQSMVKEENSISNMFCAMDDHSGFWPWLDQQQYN
Test: EMSA; 200x unlabeled same-sequence competitor also run (lane 3); EMSA as in Wu et al. 2012, Odyssey Infrared EMSA kit (LI-COR); buffer, salt, pH and temperature not stated
Conditions: protein: recombinant; tags: GST (pDEST24, C-terminal fusion); chain copies: 2; label: 5'-DY682; blunt

B1: JUB1 promoter 40-bp fragment (AtHB13BS-L) (dsDNA)
DNA 1: CTATAAAATTAGTTGCAATAAATGATTTAATTATTTTCCG
DNA 2: CGGAAAATAATTAAATCATTTATTGCAACTAATTTTATAG
B1: binds.
